Experimental data published in patent publication US20140193417A1 (LUDWIG INSTITUTE FOR CANCER RESEARCH, published 2014).

Legend:
[1] = target: T1, GST/NaPi2b-L fusion protein (aa 188-361 of NaPi2b) (human, UniProt O95436 188-361); experiment: Western blot
T1 construct: range 188-361; GST is put first here (pGEX vector); also called GST-fusion protein (covering aa 188-361 of NaPi2b); bacterial fusion protein; not shown: glutathione S-transferase (GST) tag of vector pGEX4T1
T1 sequence (looked up): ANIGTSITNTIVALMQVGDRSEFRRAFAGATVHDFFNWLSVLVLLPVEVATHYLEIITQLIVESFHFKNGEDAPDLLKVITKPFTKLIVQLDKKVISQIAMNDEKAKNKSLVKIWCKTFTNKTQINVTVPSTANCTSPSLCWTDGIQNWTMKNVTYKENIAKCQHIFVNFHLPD

[2] = target: T2, NaPi2b 312-340 array peptide with Ala at 328, Ac-INVTVPSTANCTSPSLAWTDGIQNWTMKN-amide (human, N-terminal acetyl (Ac-), C-terminal amide); experiment: synthetic peptide membrane array, 1 ug/ml antibody
T2 peptide: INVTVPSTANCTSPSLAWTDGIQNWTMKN
Procedure: (§1) For epitope mapping, membranes were incubated for 3 hours with 1 ug/ml primary antibody, followed by incubation with HRP-labeled goat anti-mouse polyclonal antibodies (Jackson ImmunoResearch Laboratories, West Grove, Pa.) for 2 hours. Bound antibody was visualized by chemiluminescence (Western Lightning Plus). For epitope mapping under reducing condition, membranes were incubated in 1 mM DTT for 1 hour at room temperature, and then washed extensively prior to antibody incubation.

[3] = target: T3, NaPi2b 312-340 array peptide with Ala at 322 and 328, Ac-INVTVPSTANATSPSLAWTDGIQNWTMKN-amide (human, N-terminal acetyl (Ac-), C-terminal amide); experiment: synthetic peptide membrane array, 1 ug/ml antibody
T3 peptide: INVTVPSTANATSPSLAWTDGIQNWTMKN
Procedure: as §1

[4] = target: T4, NaPi2b 317-340 array peptide Ac-PSTANCTSPSLCWTDGIQNWTMKN-amide (human, N-terminal acetyl (Ac-), C-terminal amide); experiment: synthetic peptide membrane array, 1 ug/ml antibody
T4 peptide: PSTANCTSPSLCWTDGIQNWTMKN
Procedure: as §1

[5] = target: T5, NaPi2b 320-340 array peptide Ac-ANCTSPSLCWTDGIQNWTMKN-amide (human, N-terminal acetyl (Ac-), C-terminal amide); experiment: synthetic peptide membrane array, 1 ug/ml antibody
T5 peptide: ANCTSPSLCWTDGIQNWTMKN
Procedure: as §1

[6] = target: T6, NaPi2b 323-340 array peptide Ac-TSPSLCWTDGIQNWTMKN-amide (human); experiment: synthetic peptide membrane array, 1 ug/ml antibody
T6 peptide: Ac-TSPSLCWTDGIQNWTMKN-NH2
Procedure: as §1

[7] = target: T7, NaPi2b 324-338 array peptide Ac-SPSLCWTDGIQNWTM-amide (human); experiment: synthetic peptide membrane array, 1 ug/ml antibody
T7 peptide: Ac-SPSLCWTDGIQNWTM-NH2
Procedure: as §1

[8] = target: T8, NaPi2b 312-340 array peptide Ac-INVTVPSTANCTSPSLCWTDGIQNWTMKN-amide (human, N-terminal acetyl (Ac-), C-terminal amide); experiment: synthetic peptide membrane array, 1 ug/ml antibody
T8 peptide: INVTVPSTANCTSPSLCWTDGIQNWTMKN
Procedure: as §1

[9] = target: T9, NaPi2b 312-340 array peptide with Ala at 322, Ac-INVTVPSTANATSPSLCWTDGIQNWTMKN-amide (human, N-terminal acetyl (Ac-), C-terminal amide); experiment: synthetic peptide membrane array, 1 ug/ml antibody
T9 peptide: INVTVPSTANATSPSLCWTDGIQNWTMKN
Procedure: as §1

[10] = target: T10, NaPi2b mutant T330V expressed in stably transfected HEK293 cells (pcDNA3.1/NaPi2b-T330V) (human, UniProt O95436 1-690); experiment: Western blot of lysates of stably transfected HEK293 cells
T10 construct: whole, on cells; Made by site-directed mutagenesis of pcDNA3.1/NaPi2b; also called mutant form T330V; not shown: EE-tag
T10 sequence (looked up): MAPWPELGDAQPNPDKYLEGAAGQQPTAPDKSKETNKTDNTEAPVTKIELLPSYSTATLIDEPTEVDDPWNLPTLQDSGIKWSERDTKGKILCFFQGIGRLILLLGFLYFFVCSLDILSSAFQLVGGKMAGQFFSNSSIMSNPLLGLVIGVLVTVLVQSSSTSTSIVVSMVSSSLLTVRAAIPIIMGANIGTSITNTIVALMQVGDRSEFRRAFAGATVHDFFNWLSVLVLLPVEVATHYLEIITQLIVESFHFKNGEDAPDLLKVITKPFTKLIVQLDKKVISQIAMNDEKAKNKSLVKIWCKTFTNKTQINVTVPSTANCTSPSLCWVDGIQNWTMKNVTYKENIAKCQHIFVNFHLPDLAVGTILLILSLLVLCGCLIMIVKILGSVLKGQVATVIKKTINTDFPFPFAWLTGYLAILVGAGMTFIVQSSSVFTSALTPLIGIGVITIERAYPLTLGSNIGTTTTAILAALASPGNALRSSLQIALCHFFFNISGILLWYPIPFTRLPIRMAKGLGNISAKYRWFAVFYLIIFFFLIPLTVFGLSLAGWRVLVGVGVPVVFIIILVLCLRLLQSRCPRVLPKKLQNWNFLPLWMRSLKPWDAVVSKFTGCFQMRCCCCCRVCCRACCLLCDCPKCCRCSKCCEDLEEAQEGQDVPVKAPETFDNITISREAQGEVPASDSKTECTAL
Procedure: Stably transfected HEK293 cells were lysed in buffer containing 10 mM Tris-HCl, pH 7.5, 150 mM NaCl, 10 mM MgCL₂, 0,5% NP-40, and a mixture of Halt Protease Inhibitor Cocktail (Pierce, USA). Protein concentration was measured by Bradford assay (Pierce, USA), and equal amounts of proteins (10 μg) were separated in 8% SDS-PAGE and blotted to polyvinylidene difluoride (PVDF) membrane (Millipore, USA). The membrane was blocked with 3% BSA in PBS (phosphate-saline buffer) containing 0.1% Tween-20 (PBST) for 1 h. Anti-NaPi2b and anti-EE-tag antibodies were incubated with membranes at 4° C. overnight. Generation of monoclonal antibodies against the extracellular loop of transporter was previously described. After washing with PBST, HRP-conjugated goat anti-mouse IgG 1:5000 (Promega, USA) was added to the membrane for 1 h at RT. Western blots were developed using the ECL system (Amersham, Sweden) and then exposed to Agfa X-ray film.
The expression of NaPi2b (wild type and mutant forms) in HEK293 was confirmed by Western blot analysis of total cell lysates with anti-EE monoclonal antibody (FIG. 22A) or anti-NaPi2b monoclonal antibodies (FIG. 22B).

B1: Murine mAb MX35 (IgG1) (antibody, V domains shown)
VH: QVQLKQSGAELVKPGASVKMSCKASGYTFTGYNIHWVKQTPGQGLEWIGAIYPGNGDTSYKQKFRGKASLTADTSSSTVYMQLSSLTSEDSAVYYCARGETARATFAYWGQGTLVTVSA
VL: DIQMTQTTSSLPASLGDRVTISCSASQDIGNFLNWYQQKPDGTVKVLIYYTSSLYSGVPSRFSGSGSGTDYSLTISNLEPEDIATYYCQQYSKLPLTFGAGTKLELKR
notes: also called MX35 MAb; monoclonal antibody MX35
Q: Which results are given for B1?
A: binding result [1]: binds; binding result [2]: binds; binding result [3]: binds; binding result [4]: binds; binding result [5]: binds; binding result [6]: binds; binding result [7]: binds; binding result [8]: binds; binding result [9]: binds; binding result [10]: no binding
